Test results taken from patent US20230272045A1 (published 2023).
Where two headings read alike, the source gives them in different places.

T1: human fibrinogen (human, UniProt P02671 20-644; P02675 31-491; P02679 27-437)
T1 chain 1: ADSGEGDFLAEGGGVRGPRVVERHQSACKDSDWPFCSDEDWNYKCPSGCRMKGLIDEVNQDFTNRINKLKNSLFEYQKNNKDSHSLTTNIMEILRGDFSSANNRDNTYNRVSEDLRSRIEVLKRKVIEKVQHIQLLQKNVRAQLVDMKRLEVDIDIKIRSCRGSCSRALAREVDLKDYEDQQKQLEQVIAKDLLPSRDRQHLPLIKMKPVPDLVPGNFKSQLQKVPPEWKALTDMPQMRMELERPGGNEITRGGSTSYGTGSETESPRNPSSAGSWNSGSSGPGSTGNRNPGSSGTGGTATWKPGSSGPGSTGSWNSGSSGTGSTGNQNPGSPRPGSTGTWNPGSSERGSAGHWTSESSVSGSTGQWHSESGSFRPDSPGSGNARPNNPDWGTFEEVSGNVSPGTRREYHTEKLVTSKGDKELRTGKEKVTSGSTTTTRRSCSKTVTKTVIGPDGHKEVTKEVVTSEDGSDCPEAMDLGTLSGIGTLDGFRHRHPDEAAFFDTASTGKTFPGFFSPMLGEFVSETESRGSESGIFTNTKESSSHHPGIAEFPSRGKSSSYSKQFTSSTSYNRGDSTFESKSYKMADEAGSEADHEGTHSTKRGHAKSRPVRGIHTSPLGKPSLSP
T1 chain 2: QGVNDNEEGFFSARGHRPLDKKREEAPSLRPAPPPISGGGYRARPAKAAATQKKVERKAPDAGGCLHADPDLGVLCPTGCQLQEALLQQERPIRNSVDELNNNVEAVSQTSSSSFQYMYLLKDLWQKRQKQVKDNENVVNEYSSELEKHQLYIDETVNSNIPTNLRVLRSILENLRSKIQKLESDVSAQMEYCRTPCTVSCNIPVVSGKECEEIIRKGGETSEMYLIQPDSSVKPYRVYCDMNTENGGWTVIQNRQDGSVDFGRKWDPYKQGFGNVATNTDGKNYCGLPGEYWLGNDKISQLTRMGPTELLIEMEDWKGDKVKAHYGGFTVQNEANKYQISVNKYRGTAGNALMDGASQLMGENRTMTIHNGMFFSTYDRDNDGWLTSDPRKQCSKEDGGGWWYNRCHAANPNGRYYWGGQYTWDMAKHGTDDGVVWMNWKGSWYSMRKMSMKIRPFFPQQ
T1 chain 3: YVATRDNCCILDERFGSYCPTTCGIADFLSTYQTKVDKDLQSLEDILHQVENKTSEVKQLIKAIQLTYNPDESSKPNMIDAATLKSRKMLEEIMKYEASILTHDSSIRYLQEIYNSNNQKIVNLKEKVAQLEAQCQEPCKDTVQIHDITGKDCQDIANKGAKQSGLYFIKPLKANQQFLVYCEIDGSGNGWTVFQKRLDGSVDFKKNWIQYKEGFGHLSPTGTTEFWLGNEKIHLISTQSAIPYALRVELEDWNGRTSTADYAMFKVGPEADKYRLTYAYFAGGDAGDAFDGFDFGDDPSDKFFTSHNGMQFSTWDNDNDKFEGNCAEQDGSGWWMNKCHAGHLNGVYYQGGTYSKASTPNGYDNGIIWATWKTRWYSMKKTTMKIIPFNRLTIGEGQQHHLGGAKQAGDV

T2: human vitronectin (human, UniProt P04004 20-478)
T2 chain: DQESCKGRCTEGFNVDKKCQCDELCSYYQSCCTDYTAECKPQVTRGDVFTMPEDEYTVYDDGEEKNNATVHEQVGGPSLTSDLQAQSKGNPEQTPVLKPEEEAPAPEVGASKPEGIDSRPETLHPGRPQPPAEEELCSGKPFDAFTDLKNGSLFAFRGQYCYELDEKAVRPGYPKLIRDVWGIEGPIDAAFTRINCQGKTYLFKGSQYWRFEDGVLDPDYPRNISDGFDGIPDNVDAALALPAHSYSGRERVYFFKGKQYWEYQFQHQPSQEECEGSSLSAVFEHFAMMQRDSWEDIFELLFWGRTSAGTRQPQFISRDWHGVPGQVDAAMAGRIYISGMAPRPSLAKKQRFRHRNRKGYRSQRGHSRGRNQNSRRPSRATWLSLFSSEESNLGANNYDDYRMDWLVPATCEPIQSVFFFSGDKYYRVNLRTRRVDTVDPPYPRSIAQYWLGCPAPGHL

B1: BMP-2 (bone morphogenetic protein-2, Peprotech) (ligand)
chain: QAKHKQRKRLKSSCKRHPLYVDFSDVGWNDWIVAPPGYHAFYCHGECPFPLADHLNSTNHAIVQTLVNSVNSKIPKACCVPTELSAISMLYLDENEKVVLKNYQDMVVEGCGCR
B2: PDGF-BB (murine wild-type platelet-derived growth factor-BB) (ligand)
chain: SLGSLAAAEPAVIAECKTRTEVFQISRNLIDRTNANFLVWPPCVEVQRCSGCCNNRNVQCRASQVQMRPVQVRKIEIVRKKPIFKKATVTLEDHLACKCETIVTPRPVT

Columns and labels:
Assay in all cases: ELISA
[1] = target: T1, human fibrinogen
[2] = target: T2, human vitronectin
[3] = target: T3, human plasma fibronectin (human, UniProt P02751 32-2296)
T3 sequence (P02751 other isoform, or with tags, fused parts or gaps): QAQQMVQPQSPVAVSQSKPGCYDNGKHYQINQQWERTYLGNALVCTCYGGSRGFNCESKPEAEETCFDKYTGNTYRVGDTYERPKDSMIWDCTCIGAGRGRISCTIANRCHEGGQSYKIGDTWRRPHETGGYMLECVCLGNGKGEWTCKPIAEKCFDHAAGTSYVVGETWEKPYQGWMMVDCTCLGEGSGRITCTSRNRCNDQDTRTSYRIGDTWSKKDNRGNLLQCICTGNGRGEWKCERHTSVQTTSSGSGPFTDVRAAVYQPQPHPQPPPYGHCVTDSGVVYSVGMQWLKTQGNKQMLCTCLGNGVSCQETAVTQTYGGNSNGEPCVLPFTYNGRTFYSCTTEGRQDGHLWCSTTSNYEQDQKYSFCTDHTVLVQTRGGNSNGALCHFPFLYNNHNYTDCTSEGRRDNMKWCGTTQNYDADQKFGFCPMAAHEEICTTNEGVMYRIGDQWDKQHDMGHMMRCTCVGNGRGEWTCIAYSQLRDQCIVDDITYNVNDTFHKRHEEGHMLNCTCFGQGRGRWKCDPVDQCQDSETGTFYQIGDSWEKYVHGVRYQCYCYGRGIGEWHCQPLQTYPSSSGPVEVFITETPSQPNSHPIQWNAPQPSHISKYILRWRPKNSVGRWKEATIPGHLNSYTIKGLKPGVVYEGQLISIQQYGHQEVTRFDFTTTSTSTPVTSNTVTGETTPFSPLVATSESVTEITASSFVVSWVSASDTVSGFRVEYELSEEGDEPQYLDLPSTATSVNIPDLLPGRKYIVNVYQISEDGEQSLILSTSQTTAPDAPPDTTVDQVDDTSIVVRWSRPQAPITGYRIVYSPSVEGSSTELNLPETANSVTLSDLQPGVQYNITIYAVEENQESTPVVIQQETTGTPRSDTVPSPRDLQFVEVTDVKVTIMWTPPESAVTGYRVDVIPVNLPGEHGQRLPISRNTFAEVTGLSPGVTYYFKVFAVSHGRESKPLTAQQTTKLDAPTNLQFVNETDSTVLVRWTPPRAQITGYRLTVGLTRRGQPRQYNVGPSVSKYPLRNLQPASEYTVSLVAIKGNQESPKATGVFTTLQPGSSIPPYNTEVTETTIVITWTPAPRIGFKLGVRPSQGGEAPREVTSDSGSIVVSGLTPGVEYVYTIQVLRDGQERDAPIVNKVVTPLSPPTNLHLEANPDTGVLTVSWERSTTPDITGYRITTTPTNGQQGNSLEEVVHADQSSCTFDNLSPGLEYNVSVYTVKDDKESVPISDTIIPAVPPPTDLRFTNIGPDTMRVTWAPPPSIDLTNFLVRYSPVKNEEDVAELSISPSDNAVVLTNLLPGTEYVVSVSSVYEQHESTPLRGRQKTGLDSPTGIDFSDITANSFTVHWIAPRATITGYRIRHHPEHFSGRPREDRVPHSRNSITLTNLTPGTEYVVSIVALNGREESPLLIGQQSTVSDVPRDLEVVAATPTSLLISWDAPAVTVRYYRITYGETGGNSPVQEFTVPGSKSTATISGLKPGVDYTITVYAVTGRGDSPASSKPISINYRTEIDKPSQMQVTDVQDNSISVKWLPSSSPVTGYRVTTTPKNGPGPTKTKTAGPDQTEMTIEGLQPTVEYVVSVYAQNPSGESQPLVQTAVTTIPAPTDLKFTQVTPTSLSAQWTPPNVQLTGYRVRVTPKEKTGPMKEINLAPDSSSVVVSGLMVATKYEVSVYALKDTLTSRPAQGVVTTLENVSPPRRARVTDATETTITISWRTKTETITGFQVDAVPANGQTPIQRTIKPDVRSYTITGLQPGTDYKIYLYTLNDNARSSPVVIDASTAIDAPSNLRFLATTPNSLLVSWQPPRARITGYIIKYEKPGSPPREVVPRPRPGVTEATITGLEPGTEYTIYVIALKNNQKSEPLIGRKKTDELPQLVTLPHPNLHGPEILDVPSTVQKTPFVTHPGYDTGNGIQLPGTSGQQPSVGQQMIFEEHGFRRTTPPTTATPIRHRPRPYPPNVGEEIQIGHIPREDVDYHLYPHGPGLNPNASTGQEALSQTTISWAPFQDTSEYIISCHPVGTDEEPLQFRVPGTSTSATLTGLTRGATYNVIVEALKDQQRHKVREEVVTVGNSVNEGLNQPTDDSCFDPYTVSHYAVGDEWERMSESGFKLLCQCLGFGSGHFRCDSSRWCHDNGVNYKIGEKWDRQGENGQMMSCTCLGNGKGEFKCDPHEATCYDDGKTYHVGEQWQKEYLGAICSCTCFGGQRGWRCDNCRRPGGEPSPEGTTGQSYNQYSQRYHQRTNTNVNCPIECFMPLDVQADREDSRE

[4] = target: human tenascin C (human, UniProt P24821 23-2201)
human tenascin C, sequence (P24821 23-2201): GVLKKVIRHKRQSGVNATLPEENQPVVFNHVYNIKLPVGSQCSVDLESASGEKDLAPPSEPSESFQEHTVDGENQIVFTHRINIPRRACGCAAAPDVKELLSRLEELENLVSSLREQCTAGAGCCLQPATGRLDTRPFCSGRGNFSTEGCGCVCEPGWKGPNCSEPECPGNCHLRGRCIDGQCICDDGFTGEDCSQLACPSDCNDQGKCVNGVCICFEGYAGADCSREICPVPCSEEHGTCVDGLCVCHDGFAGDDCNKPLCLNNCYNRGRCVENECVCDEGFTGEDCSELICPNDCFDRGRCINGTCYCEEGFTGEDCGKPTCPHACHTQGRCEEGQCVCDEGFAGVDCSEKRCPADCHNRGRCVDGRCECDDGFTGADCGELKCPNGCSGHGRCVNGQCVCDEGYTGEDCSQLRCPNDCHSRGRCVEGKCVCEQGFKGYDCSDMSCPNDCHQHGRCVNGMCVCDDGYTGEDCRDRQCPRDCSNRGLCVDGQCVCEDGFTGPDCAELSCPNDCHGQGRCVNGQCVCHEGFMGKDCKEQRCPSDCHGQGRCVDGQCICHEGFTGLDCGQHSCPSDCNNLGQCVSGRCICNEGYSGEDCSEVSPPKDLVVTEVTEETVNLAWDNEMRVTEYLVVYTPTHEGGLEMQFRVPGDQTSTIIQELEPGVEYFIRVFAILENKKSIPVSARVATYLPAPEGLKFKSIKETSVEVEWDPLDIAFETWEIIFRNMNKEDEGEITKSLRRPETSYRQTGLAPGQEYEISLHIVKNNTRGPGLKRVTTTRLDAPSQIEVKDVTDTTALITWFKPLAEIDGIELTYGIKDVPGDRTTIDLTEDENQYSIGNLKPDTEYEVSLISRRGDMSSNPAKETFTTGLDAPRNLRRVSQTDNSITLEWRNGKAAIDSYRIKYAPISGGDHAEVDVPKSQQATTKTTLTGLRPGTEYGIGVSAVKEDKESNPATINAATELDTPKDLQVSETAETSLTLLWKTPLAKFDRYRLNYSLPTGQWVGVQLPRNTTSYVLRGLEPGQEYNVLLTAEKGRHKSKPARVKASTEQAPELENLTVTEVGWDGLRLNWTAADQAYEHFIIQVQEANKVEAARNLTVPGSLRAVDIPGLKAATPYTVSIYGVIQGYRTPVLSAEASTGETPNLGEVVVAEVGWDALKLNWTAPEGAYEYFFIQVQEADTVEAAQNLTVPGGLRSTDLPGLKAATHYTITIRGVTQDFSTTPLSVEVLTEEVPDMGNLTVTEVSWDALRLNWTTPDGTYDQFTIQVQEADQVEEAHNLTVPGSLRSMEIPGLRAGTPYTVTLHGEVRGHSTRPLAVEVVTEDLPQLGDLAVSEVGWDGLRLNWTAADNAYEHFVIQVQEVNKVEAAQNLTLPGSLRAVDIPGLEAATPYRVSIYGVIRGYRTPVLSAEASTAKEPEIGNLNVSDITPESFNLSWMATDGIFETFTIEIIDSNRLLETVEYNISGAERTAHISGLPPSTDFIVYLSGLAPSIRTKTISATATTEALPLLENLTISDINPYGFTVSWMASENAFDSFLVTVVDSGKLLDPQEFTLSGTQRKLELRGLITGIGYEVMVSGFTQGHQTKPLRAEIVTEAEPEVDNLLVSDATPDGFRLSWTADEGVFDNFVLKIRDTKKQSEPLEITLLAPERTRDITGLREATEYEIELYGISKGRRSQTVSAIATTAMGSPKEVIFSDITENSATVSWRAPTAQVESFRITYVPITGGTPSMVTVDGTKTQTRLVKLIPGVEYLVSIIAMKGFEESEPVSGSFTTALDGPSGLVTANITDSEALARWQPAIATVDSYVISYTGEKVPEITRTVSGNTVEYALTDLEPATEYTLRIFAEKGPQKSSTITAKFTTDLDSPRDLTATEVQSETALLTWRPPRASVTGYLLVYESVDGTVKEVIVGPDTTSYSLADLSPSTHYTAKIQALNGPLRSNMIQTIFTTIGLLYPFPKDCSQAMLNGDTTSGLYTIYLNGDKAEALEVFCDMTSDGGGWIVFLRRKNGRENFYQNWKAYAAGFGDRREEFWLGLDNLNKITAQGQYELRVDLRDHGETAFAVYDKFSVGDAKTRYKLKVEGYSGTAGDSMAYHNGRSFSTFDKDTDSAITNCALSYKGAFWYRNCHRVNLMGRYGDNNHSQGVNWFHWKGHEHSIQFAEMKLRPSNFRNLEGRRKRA

[5] = target: T2, human vitronectin
[6] = target: T3, human plasma fibronectin; remark: listed apart in the source

Binder | Kd [1] [nM] | Kd [2] [nM] | Kd [3] [nM] | Kd [4] [nM] | Kd [5] [nM] | Kd [6] [nM]
B1 | 46.4 | 12.6 | 49.9 | 19.5 | – | –
B2 | – | – | – | – | 29.8 | 60.2
